Assay results: US20100196934A1
Several values for one entry are separate records, joined by “and”; a condition that tells them apart may be missing. Identical values can stand only once. Like-named read-outs stand apart in the source and are kept apart here.

What was measured:
[1] = target: Syrian hamster PrP^Sc (scrapie-infected SHa brain homogenate) (Syrian hamster)
[2] = target: Syrian hamster PrP^C (normal SHa brain homogenate) (Syrian hamster); assay: sandwich ELISA, capture 3F4; normal SHa BH, PK 5 ug/mL, NaOH-denatured
[3] = target: Syrian hamster PrP^C (normal SHa brain homogenate) (Syrian hamster); assay: sandwich ELISA, capture 3F4; normal SHa BH, PK 25 ug/mL, GdnHCl-denatured
[4] = target: Syrian hamster PrP^Sc (scrapie-infected SHa brain homogenate) (Syrian hamster); assay: sandwich ELISA, capture 3F4; infectious SHa BH, PK 25 ug/mL, GdnHCl-denatured
[5] = target: Syrian hamster PrP^C (normal SHa brain homogenate) (Syrian hamster); assay: sandwich ELISA, capture 3F4; normal SHa BH, trypsin 10 ug/mL, NaOH-denatured
[6] = target: Syrian hamster PrP^C (normal SHa brain homogenate) (Syrian hamster); assay: sandwich ELISA, capture 3F4; normal SHa BH, trypsin 20 ug/mL, NaOH-denatured
[7] = target: Syrian hamster PrP^Sc (scrapie-infected SHa brain homogenate) (Syrian hamster); assay: sandwich ELISA, capture POM2; infectious SHa BH, PK 25 ug/mL, GdnHCl-denatured
[8] = target: Syrian hamster PrP^C (normal SHa brain homogenate) (Syrian hamster); assay: sandwich ELISA, capture 3F4; normal SHa BH, PK 0 ug/mL, NaOH-denatured
[9] = target: Syrian hamster PrP^C (normal SHa brain homogenate) (Syrian hamster); assay: sandwich ELISA, capture 3F4; normal SHa BH, trypsin 50 ug/mL, NaOH-denatured
[10] = target: Syrian hamster PrP^C (normal SHa brain homogenate) (Syrian hamster); assay: sandwich ELISA, capture 3F4; normal SHa BH, trypsin 25 ug/mL, GdnHCl-denatured
[11] = target: Syrian hamster PrP^C (normal SHa brain homogenate) (Syrian hamster); assay: sandwich ELISA, capture 3F4; normal SHa BH, PK 10 ug/mL, NaOH-denatured
[12] = target: Syrian hamster PrP^C (normal SHa brain homogenate) (Syrian hamster); assay: sandwich ELISA, capture POM2; normal SHa BH, PK 25 ug/mL, GdnHCl-denatured
[13] = target: Syrian hamster PrP^C (normal SHa brain homogenate) (Syrian hamster); assay: sandwich ELISA, capture 3F4; normal SHa BH, trypsin 0 ug/mL, NaOH-denatured
[14] = target: Syrian hamster PrP^C (normal SHa brain homogenate) (Syrian hamster); assay: sandwich ELISA, capture 3F4; normal SHa BH, PK 50 ug/mL, NaOH-denatured
[15] = target: Syrian hamster PrP^C (normal SHa brain homogenate) (Syrian hamster); assay: sandwich ELISA, capture POM2; normal SHa BH, trypsin 25 ug/mL, GdnHCl-denatured
[16] = target: Syrian hamster PrP^Sc (scrapie-infected SHa brain homogenate) (Syrian hamster); assay: sandwich ELISA, capture 3F4; scrapie-infected SHa BH, PK 0 ug/mL, NaOH-denatured
[17] = target: Syrian hamster PrP^C (normal SHa brain homogenate) (Syrian hamster); assay: sandwich ELISA, capture 3F4; normal SHa BH, PK 20 ug/mL, NaOH-denatured
[18] = target: Syrian hamster PrP^C (normal SHa brain homogenate) (Syrian hamster); assay: sandwich ELISA, capture 3F4; normal SHa BH, trypsin 5 ug/mL, NaOH-denatured
[19] = target: Syrian hamster PrP^C (normal SHa brain homogenate) (Syrian hamster); assay: sandwich ELISA, capture 3F4; normal SHa BH, PK 100 ug/mL, NaOH-denatured
[20] = target: Syrian hamster PrP^Sc (scrapie-infected SHa brain homogenate) (Syrian hamster); assay: sandwich ELISA, capture 3F4; scrapie-infected SHa BH, PK 5 ug/mL, NaOH-denatured
[21] = target: Syrian hamster PrP^C (normal SHa brain homogenate) (Syrian hamster); assay: sandwich ELISA, capture 3F4; normal SHa BH, trypsin 100 ug/mL, NaOH-denatured
[22] = target: Deer recombinant PrP (deer); assay: direct ELISA, coated denatured rPrP 1 ng/assay
[23] = target: Human recombinant PrP (human); assay: direct ELISA, coated denatured rPrP 1 ng/assay
[24] = target: Bovine recombinant PrP (bovine); assay: direct ELISA, coated denatured rPrP 1 ng/assay
[25] = target: Sheep recombinant PrP (sheep); assay: direct ELISA, coated denatured rPrP 1 ng/assay
[26] = target: Mouse recombinant PrP (mouse); assay: direct ELISA, coated denatured rPrP 1 ng/assay
Mouse BH PrP^Sc (mouse) [27] = assay: direct ELISA, coated denatured mouse BH PrP^Sc 0.1 mg BH/assay
[28] = target: Deer recombinant PrP (deer); assay: direct ELISA, coated denatured rPrP 0.1 ng/assay
[29] = target: Human recombinant PrP (human); assay: direct ELISA, coated denatured rPrP 0.1 ng/assay
[30] = target: Bovine recombinant PrP (bovine); assay: direct ELISA, coated denatured rPrP 0.1 ng/assay
[31] = target: Sheep recombinant PrP (sheep); assay: direct ELISA, coated denatured rPrP 0.1 ng/assay
[32] = target: Mouse recombinant PrP (mouse); assay: direct ELISA, coated denatured rPrP 0.1 ng/assay
Mouse BH PrP^Sc (mouse) [33] = assay: direct ELISA, coated denatured mouse BH PrP^Sc 1 mg BH/assay
[34] = target: Human PrP^C (normal human plasma; normal human brain homogenate) (human); assay: sandwich ELISA, capture SAF-32; normal human BH, trypsin 25 ug/mL, un-denatured
[35] = target: Human PrP^C (normal human plasma; normal human brain homogenate) (human); assay: sandwich ELISA, capture SAF-32; normal human BH, PK 25 ug/mL, un-denatured
[36] = target: Human PrP^Sc of vCJD brain homogenate (vCJD MM, White strain) (human); assay: sandwich ELISA, capture SAF-32; vCJD human BH, PK 25 ug/mL, 4M GdnHCl-denatured
[37] = target: Human PrP^Sc of vCJD brain homogenate (vCJD MM, White strain) (human)
[38] = target: Human PrP^C (normal human plasma; normal human brain homogenate) (human)
[39] = target: Human PrP^Sc of vCJD brain homogenate (vCJD MM, White strain) (human); assay: sandwich ELISA, capture SAF-32; vCJD human BH, trypsin 25 ug/mL, un-denatured
[40] = target: Human PrP^Sc of vCJD brain homogenate (vCJD MM, White strain) (human); assay: sandwich ELISA, capture SAF-32; vCJD human BH, PK 25 ug/mL, un-denatured
[41] = target: Syrian hamster PrP^C (normal SHa brain homogenate) (Syrian hamster); assay: sandwich ELISA, capture POM17; normal SHa BH, PK 25 ug/mL, GdnHCl-denatured
[42] = target: Syrian hamster PrP^C (normal SHa brain homogenate) (Syrian hamster); assay: sandwich ELISA, capture 3F4; normal SHa BH, trypsin 0 ug/mL, not denatured
[43] = target: Syrian hamster PrP^C (normal SHa brain homogenate) (Syrian hamster); assay: sandwich ELISA, capture 3F4; normal SHa BH, trypsin 100 ug/mL, not denatured
[44] = target: Syrian hamster PrP^C (normal SHa brain homogenate) (Syrian hamster); assay: sandwich ELISA, capture 3F4; normal SHa BH, trypsin 25 ug/mL, not denatured
[45] = target: Human PrP^C (normal human plasma; normal human brain homogenate) (human); assay: sandwich ELISA, capture 3F4; normal human plasma, trypsin 0 ug/mL, not denatured
[46] = target: Syrian hamster PrP^C (normal SHa brain homogenate) (Syrian hamster); assay: sandwich ELISA, capture POM17; normal SHa BH, trypsin 25 ug/mL, GdnHCl-denatured
[47] = target: Syrian hamster PrP^C (normal SHa brain homogenate) (Syrian hamster); assay: sandwich ELISA, capture 3F4; normal SHa BH, trypsin 50 ug/mL, not denatured
[48] = target: Syrian hamster PrP^Sc (scrapie-infected SHa brain homogenate) (Syrian hamster); assay: sandwich ELISA, capture POM17; infectious SHa BH, PK 25 ug/mL, GdnHCl-denatured

## POM17 antibody
[1]
  RLU: 254 RLU and 381 RLU
[2]
  RLU: 11.4 RLU
[3]
  RLU: 1.7 RLU
[4]
  RLU: 200 RLU
[5]
  RLU: 4.5 RLU
[6]
  RLU: 2.8 RLU
[7]
  RLU: 68.4 RLU
[8]
  RLU: 1680 RLU
[9]
  RLU: 2 RLU
[10]
  RLU: 2 RLU
[11]
  RLU: 7.2 RLU
[12]
  RLU: 1.8 RLU
[13]
  RLU: 1660 RLU
[14]
  RLU: 3.3 RLU
[15]
  RLU: 14.6 RLU
[16]
  RLU: 3860 RLU
[17]
  RLU: 5.5 RLU
[18]
  RLU: 8.5 RLU
[19]
  RLU: 2.8 RLU
[20]
  RLU: 2480 RLU
[21]
  RLU: 2.6 RLU

## Mouse anti Prion (MAB5424) (antibody)
[22]
  RLU: 118 RLU
[23]
  RLU: 67.6 RLU
[24]
  RLU: 827 RLU
[25]
  RLU: 899 RLU
[26]
  RLU: 605 RLU
Mouse BH PrP^Sc (mouse) [27]
  RLU: 167 RLU
[28]
  RLU: 104 RLU
[29]
  RLU: 76.1 RLU
[30]
  RLU: 84.6 RLU
[31]
  RLU: 214 RLU
[32]
  RLU: 90.1 RLU
Mouse BH PrP^Sc (mouse) [33]
  RLU: 601 RLU

## Mouse anti Prion (SAF-53) (antibody)
[22]
  RLU: 263 RLU
[23]
  RLU: 93.5 RLU
[24]
  RLU: 145 RLU
[25]
  RLU: 154 RLU
[26]
  RLU: 612 RLU
Mouse BH PrP^Sc (mouse) [27]
  RLU: 165 RLU
[28]
  RLU: 144 RLU
[29]
  RLU: 85.2 RLU
[30]
  RLU: 76.6 RLU
[31]
  RLU: 100 RLU
[32]
  RLU: 70.8 RLU
Mouse BH PrP^Sc (mouse) [33]
  RLU: 667 RLU

## HuM D13 (antibody)
[22]
  RLU: 130 RLU
[23]
  RLU: 69.9 RLU
[24]
  RLU: 93.1 RLU
[25]
  RLU: 161 RLU
[26]
  RLU: 294 RLU
Mouse BH PrP^Sc (mouse) [27]
  RLU: 239 RLU
[28]
  RLU: 232 RLU
[29]
  RLU: 89.5 RLU
[30]
  RLU: 75.1 RLU
[31]
  RLU: 179 RLU
[32]
  RLU: 117 RLU
Mouse BH PrP^Sc (mouse) [33]
  RLU: 664 RLU

## monoclonal antibody 3F4
[34]
  RLU: 6.1 RLU
[35]
  RLU: 7.7 RLU
[36]
  RLU: 226 RLU
[37]
  RLU: 1650 RLU
[38]
  RLU: 50.4 RLU and 18.1 RLU
[39]
  RLU: 15.1 RLU
[40]
  RLU: 10 RLU

## POM2 antibody
[41]
  RLU: 13.4 RLU
[1]
  RLU: 2370 RLU and 2250 RLU
[2]
  RLU: 84.1 RLU
[3]
  RLU: 10 RLU
[4]
  RLU: 527 RLU
[5]
  RLU: 19.7 RLU
[42]
  RLU: 2940 RLU
[6]
  RLU: 8.5 RLU
[43]
  RLU: 11.7 RLU
[44]
  RLU: 20.5 RLU
[45]
  RLU: 195 RLU
[8]
  RLU: 1950 RLU
[46]
  RLU: 70.6 RLU
[9]
  RLU: 3.4 RLU
[47]
  RLU: 14.9 RLU
[10]
  RLU: 21.4 RLU
[48]
  RLU: 596 RLU
[11]
  RLU: 50.2 RLU
[13]
  RLU: 2140 RLU
[14]
  RLU: 15.8 RLU
[16]
  RLU: 2290 RLU
[17]
  RLU: 37.1 RLU
[18]
  RLU: 33.2 RLU
[19]
  RLU: 4.6 RLU
[20]
  RLU: 2310 RLU
[21]
  RLU: 3.4 RLU

## Mouse anti Prion (SAF-32) (antibody)
[22]
  RLU: 2320 RLU
[23]
  RLU: 1570 RLU
[24]
  RLU: 2400 RLU
[25]
  RLU: 1440 RLU
[26]
  RLU: 73.3 RLU
Mouse BH PrP^Sc (mouse) [27]
  RLU: 176 RLU
[28]
  RLU: 457 RLU
[29]
  RLU: 285 RLU
[30]
  RLU: 450 RLU
[31]
  RLU: 294 RLU
[32]
  RLU: 97.6 RLU
Mouse BH PrP^Sc (mouse) [33]
  RLU: 551 RLU
